Changes are numbered by the printed parent chain. Positions of bridges follow the written chain, without caps; N, C: chain ends. Non-standard residues stand in square brackets, D forms with d. No end group written: not given here. R8 = C=CCCCCCC[C@@](C)(N)C(=O)O; S5 = C=CCCC[C@](C)(N)C(=O)O
Experiments:
[1] = tested on: ATM S1981 and CHK2 S33/35 phosphorylation in U937 cells; test: Phospho-signaling analysis (western blot); format: cell-based, human; details: 2 hr
Description: Cells were then washed with PBS, lysed in 1% CHAPS buffer, and the supernatant collected for protein concentration determination by BCA kit. Samples were subjected to electrophoresis and western analysis using 1:1000 dilutions of phospho-ATM (S1981, Cell Signaling, #4526), ATM (Abcam, #ab78), phospho-CHK2 (Ser33/35, Cell Signaling, #2665), CHK2 (Cell Signaling, #2662), and actin (Sigma #A1978) antibodies.

[2] = tested on: BAX protein in U937 cells; test: Dynamic assessment of BAX protein levels (western blot); format: cell-based, human; details: 5 μM
Protocol: U937 cells were plated in 6-well plates (2×10^6 cells per well), treated with AZD0156 (5 μM), and the cells harvested and lysed at the indicated time points. Cell lysates were then subjected to electrophoresis and western blotting with BAX (Santa Cruz sc-493) and actin (Sigma #A1978) antibodies.

[3] = target: T1, His-BFL-1ΔC (Homo sapiens, UniProt Q16548); test: Streptavidin pulldown from recombinant protein mixture, BFL-1; format: binding; details: equimolar mixture of recombinant MCL-1, BCL-XL, BFL-1 and biotinylated SAHB, silver stain
T1 construct: Recombinant anti-apoptotic BFL-1ΔC (aa 1-151) and its cysteine to serine mutants were cloned into PET17b; made in house; host or cells: Escherichia coli LOBSTR BL21(DE3)
T1 sequence (Q16548 1-151): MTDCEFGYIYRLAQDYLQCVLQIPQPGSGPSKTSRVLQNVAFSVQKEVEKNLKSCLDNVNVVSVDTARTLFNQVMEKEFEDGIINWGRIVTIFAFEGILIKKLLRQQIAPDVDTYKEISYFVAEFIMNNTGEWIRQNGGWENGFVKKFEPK
Protocol: WT His-BFL-1ΔC, BCL-XLΔC (tagless), and GST-MCL-1ΔNΔC (1 μM each) were combined and incubated with 3 mM DTT in PBS for thirty minutes at room temperature. Mixtures were treated with vehicle or the indicated C-terminally biotinylated NOXA SAHB (1 μM) for four hours and were then added to 30 μL PBS-washed high-capacity streptavidin (SA) agarose beads (Thermo Fisher Pierce) and incubated with rotation at room temperature for two hours. The beads were then washed three times with NP-40 lysis buffer (1% NP-40, 50 mM Tris pH 8, 100 mM NaCl, 2.5 mM MgCl2) and three times with PBS. To elute bound protein, beads were boiled for ten minutes with 10% SDS containing 10 mg/mL biotin. After elution, samples were boiled with 3×LDS and 2M DTT for twenty minutes. Gel electrophoresis using a 12% Bis-Tris gel was conducted on inputs (2%) and eluates (5 μL) and gels were developed using the Pierce silver staining kit (Thermo Fisher).

[4] = target: T2, BFL-1ΔC C4S/C19S/C55S / FITC-BID BH3 (Homo sapiens, UniProt Q16548, C19S/C4S/C55S); test: Competitive fluorescence polarization binding assay, BFL-1ΔC C4S/C19S/C55S
T2 construct: Recombinant anti-apoptotic BFL-1ΔC (aa 1-151) and its cysteine to serine mutants were cloned into PET17b; hexahistidine (N); made in house; host or cells: Escherichia coli LOBSTR BL21(DE3)
T2 sequence (Q16548 1-151 C4S/C19S/C55S): T1 sequence (Q16548 1-151) with C4S, C19S, C55S
Protocol: (§1) Fluorescence polarization (FP) assays were performed as previously described (Pitter et al., 2008 (supra)). Briefly, direct binding curves were first generated by FITC-BID BH3 (25 nM) with serial dilutions of anti-apoptotic protein, and FP was measured at 5 min on a SpectraMax M5 microplate reader (Molecular Devices). For competition assays, a serial dilution of acetylated or warhead-bearing NOXA SAHB was added to the indicated recombinant protein at ˜EC75 concentration, as determined by the direct binding assay. FITC-BID BH3 (25 nM) was then added and fluorescence polarization was measured at equilibrium. IC50 values were calculated by nonlinear regression analysis of competitive binding curves using PRISM software (GraphPad).

[5] = target: T3, MCL-1 (Homo sapiens, UniProt Q07820); test: MCL-1 engagement in A375P lysates (streptavidin pulldown, MCL-1 western); format: binding; details: biotinylated SAHB
T3 construct: endogenous protein in lysates from the A375P melanoma cell line; endogenous in cells; host or cells: A375P melanoma cells (lysate)
Protocol: Cultured A375P and U937 cells were trypsinized or harvested, respectively, washed with PBS, and lysed by incubating with 1% CHAPS lysis buffer (1% CHAPS, 150 mM NaCl, 50 mM Tris pH 7.4, 100 μM DTT). The protein concentrations of the soluble fraction were measured using a BCA kit according to the manufacturer's instructions (Thermo Scientific). Lysate samples (1 mg) were incubated with vehicle or C-terminally biotinylated NOXA SAHBs (30 μM) overnight in 1% CHAPS lysis buffer at 4° C. Biotin capture was accomplished by incubating the mixture with high-capacity SA agarose (Thermo Scientific) for 2 hours at 4° C., followed by centrifugation and washing the pelleted beads three times with lysis buffer (1 mL). Bead-bound proteins were eluted by boiling in 10% SDS containing 10 mg/mL biotin for 10 minutes and then subjected to electrophoresis and western blotting using BFL-1 (Abcam, #125259) and MCL-1 (Rockland #600-401-394S) antibodies.

[6] = target: T4, FLAG-MCL-1 / tBID (Homo sapiens, UniProt Q07820); test: MCL-1/tBID complex disruption in 293T lysates; format: binding; details: FLAG immunoprecipitation
T4 construct: expressed in transfected cells; host or cells: 293T (lysate)
Protocol: To evaluate the capacity of biotinylated SAHBs to compete with tBID for interactions with BFL-1 and MCL-1, 293T cells were transfected with either HA-BFL-1ΔC C4S/C19S or FLAG-MCL-1 in the p3XFLAG-CMV-10 vector (Sigma) as above. After 24 hr, cells were trypsinized, washed with PBS, lysed in 1% CHAPS buffer, and the supernatant collected for protein concentration determination by BCA kit. Lysate samples (0.5 mg) were incubated with 0.25 μM recombinant tBID (R&D Systems) and 5 μM biotinylated NOXA SAHBs for 6 h at RT. The mixtures were then subjected to HA or FLAG immunoprecipitation, followed by western analysis using 1:1000 dilutions of HA (Sigma Aldrich, #12CA5), FLAG (Sigma-Aldrich, F7425), and BID (Santa Cruz sc-11423) antibodies.

[7] = target: T5, BCL-XLΔC / FITC-BID BH3 (Homo sapiens, UniProt Q07817); test: Competitive fluorescence polarization binding assay, BCL-XLΔC
T5 construct: Recombinant anti-apoptotic BCL-XLΔC (aa 1-212) and MCL-1ΔNΔC (aa 172-329); GST (N, cleaved yes); made in house; host or cells: Escherichia coli BL21(DE3)
Protocol: as §1

T5 sequence (Q07817 1-212, stated change not applied): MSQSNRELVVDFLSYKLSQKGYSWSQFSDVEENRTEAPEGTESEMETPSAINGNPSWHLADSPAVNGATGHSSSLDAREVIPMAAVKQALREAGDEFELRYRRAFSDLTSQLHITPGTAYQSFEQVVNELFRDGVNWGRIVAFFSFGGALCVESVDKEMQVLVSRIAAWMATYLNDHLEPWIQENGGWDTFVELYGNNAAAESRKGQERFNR
T4 sequence (Q07820 whole entry): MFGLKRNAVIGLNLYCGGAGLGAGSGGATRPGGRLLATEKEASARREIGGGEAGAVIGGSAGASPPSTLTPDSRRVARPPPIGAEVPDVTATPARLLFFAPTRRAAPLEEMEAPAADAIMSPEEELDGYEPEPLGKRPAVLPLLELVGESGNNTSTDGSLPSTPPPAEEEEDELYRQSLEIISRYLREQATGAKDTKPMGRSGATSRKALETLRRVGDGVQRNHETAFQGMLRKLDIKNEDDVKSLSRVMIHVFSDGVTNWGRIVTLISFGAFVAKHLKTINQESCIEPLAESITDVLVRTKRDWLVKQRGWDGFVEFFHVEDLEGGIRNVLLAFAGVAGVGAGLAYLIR

CN(C)CCCOc1ccc(-c2ccc3ncc4c(c3c2)n(C2CCOCC2)c(=O)n4C)cn1 [AZD0156]
ATM auto-phosphorylation at S1981 [1]: dose-responsive inhibition of S1981 auto-phosphorylation
CHK2 phosphorylation at S33/35 [1]: potent blockade of CHK2 phosphorylation even at the lowest treatment dose
protein level of pro-apoptotic BAX [2]: time-dependent increase in the protein level of pro-apoptotic BAX

*AT8LRRFGDXLNFRQ [Ac-NOXA SAHB, acetyl-capped i, i+7-stapled NOXA BH3 peptide (aa 26-40)]
BFL-1 binding / pull down [3]: little to no interaction with BFL-1

AT8LREFGDXLNFRQ (AT[R8]LREFGD[S5]LNFRQ; staple 3-10 (inferred); not fully specified (N-terminus); printed as AT8LREFGDXLNFRQ) [Ac-NOXA-15 R31E, acetylated counterpart of D-NA-NOXA-15 R31E]
competition for FITC-BID BH3 binding to BFL-1ΔC C4S/C19S/C55S [4]: neither D-NA- nor Ac-NOXA15 R31E competes
MCL-1 engagement [5]: approximately equivalent binding to MCL-1
dissociation of FLAG-MCL-1/tBID interaction [6]: neither D-NA- nor Ac-NOXA15 R31E is able to dissociate the interaction
competition for FITC-BID BH3 binding to BCL-XLΔC [7]: neither Ac- nor D-NA-NOXA-15 R31E is able to compete
